In this assay the target is SoPIP2;1 wild type (Spinacia oleracea). As to the kind of experiment: SDS-PAGE (SDS-resistant oligomers); purified protein mixed with SDS sample loading buffer (125 mM Tris-HCl pH 6.8, 20% glycerol, 4% SDS), 10 min at room temperature, 12% gel, Coomassie; WT also pre-incubated with DTT or β-mercaptoethanol for varying times; WT against mutants with 10% β-mercaptoethanol in the loading buffer; monomer to dimer.

SoPIP2;1 wild type (natural protein) came in with a stoichiometry N of 2.
